Target: Neural cell adhesion molecule (NCAM1), endogenous in Vero cells (African green monkey (endogenous in Vero))

Zika virus (ZIKV) E protein on the surface of purified mature virions, labelled with the maleimide-diazirine-biotin probe (natural protein)
decrease in ZIKV attachment to Vero cells (RT-qPCR) with NCAM1 ECD protein or anti-NCAM1 antibody: 40%

Reference: article PMC7403387
